Measurements taken from patent US20250270289A1, “SEQUENCE-DEFINED POLYMERS WITH ONE OR MORE AZIDES, METHODS OF MAKING, AND METHODS OF USE THEREOF” (Yale University, priority 2021, published 2025).

Assays:
[1] = Half-life from blood samples by GFP ELISA after injection; type: in vivo, C57BL/6 mice; details: intravenous, 50 μg, no ISAz treatment
Method: The half-lives of ELP-GFP constructs were calculated from concentrations measured from blood samples collected over the course of a week. The experiments were initiated by injecting 120 μL of 10 μM ELP-GFP intravenously or subcutaneously. At indicated times, 2 μL blood was collected from a tail puncture, and diluted 1:25 in heparin tubes. The blood sample was vortexed briefly and cells were pelleted by centrifugation (2 min at 14,000 g). The soluble fraction was collected and frozen at −20° C. until analysis. ELP-GFP concentrations of the samples were determined using a GFP ELISA Kit (Abcam, cat. #ab171581). The samples were diluted in PBS as needed, to ensure that the concentration fell within the quantifiable range of the standard curve.
Next, experiments were designed to determine if the tighter binding affinity translates into prolonged half-life in C57BL/6J mice. A total of 50 μg of each protein variant (10 μM in PBS) was injected intravenously, and blood was collected after 1, 4, 8, 16 and 24 hours, followed by daily collections through seven days. The blood levels of ELP(nFA)-GFP constructs were measured using a GFP-specific ELISA, and their pharmacokinetic profiles were calculated (see FIGS. 7F and 7G).

[2] = biological target: mouse serum albumin (MSA) (Mus musculus, UniProt P07724); assay: Surface plasmon resonance, steady-state affinity; details: not ISAz treated; mean (s.d.) of 4-8 experiments; n.d. = no binding detected
mouse serum albumin (MSA), sequence (P07724 25-608): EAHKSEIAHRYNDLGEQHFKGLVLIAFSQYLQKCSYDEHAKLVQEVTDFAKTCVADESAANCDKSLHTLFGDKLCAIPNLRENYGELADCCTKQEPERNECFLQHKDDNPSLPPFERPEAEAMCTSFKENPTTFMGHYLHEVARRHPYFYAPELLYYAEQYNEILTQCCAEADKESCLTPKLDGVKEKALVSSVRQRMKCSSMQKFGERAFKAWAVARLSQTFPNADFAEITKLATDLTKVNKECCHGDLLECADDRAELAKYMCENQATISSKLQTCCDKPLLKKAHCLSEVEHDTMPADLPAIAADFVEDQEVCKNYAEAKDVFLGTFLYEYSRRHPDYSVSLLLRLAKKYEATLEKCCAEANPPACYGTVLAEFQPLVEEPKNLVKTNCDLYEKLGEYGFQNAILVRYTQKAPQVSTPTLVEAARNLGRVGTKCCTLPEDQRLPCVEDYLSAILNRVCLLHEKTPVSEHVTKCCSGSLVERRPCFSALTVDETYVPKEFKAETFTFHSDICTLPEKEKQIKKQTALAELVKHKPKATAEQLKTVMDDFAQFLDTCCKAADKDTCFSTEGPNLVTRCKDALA

B1: ELP(0FA)GFP: ELP-GFP fusion, 10 pentadecapeptide repeats with tyrosine at the guest residue, no conjugated fatty acids (SEQ ID NO:33) (protein)
chain: MSKGPGVPGGGVPGAGVPGYGVPGGGVPGAGVPGYGVPGGGVPGAGVPGYGVPGGGVPGAGVPGYGVPGGGVPGAGVPGYGVPGGGVPGAGVPGYGVPGGGVPGAGVPGYGVPGGGVPGAGVPGYGVPGGGVPGAGVPGYGVPGGGVPGAGVPGYGPGGGG
[1]
  half-life: 1.7 h
[2]
  KD MSA: no detectable binding
